From US20110038869A1 (Genmab, published 2011)
Where a chain is given by its changes, count along the chain named.

Key:
[1] = molecular target: T1, full length CD32b2 on transfected IIA1.6 cells (human, UniProt P31994-2 43-291); experiment: flow cytometry on IIA1.6-CD32b2 cells
T1 construct: whole, on cells; also called IIA1.6-CD32b2
T1 sequence (looked up): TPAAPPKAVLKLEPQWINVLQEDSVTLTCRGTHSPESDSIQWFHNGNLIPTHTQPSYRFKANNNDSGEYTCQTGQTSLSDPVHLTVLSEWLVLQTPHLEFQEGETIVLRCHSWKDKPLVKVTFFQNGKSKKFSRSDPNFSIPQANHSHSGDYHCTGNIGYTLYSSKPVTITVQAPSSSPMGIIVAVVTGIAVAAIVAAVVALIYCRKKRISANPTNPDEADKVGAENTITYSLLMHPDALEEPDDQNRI
Method: (§1) After harvesting and counting, IIA1.6 cells stably transfected with full length CD32a and CD32b (van den Herik-Oudijk et al., 1994), control IIA1.6 cells and Daudi-luc cells were resuspended in PBS (1×10⁶ cells/ml). Cells were put in 96-well V-bottom plates (100 μl/well) and washed twice with FACS buffer (PBS supplemented with 0.1% BSA and 0.02% Na-azide). Thereafter, 50 μl of serially diluted HuMab in FACS buffer was added to the cells and incubated for 30 minutes at 4° C. After washing three times with FACS buffer, 50 μl of phycoerythrin (PE)-conjugated rabbit anti-human IgG (Jackson ImmunoResearch Europe), diluted 1:200 in FACS buffer, was added. After 30 minutes at 4° C. (in the dark), cells were washed three times, and specific binding of the HuMabs was detected by flow cytometry on a FACSCalibur (BD Biosciences). […] Binding curves were analyzed using non-linear regression (sigmoidal dose-response with variable slope) using GraphPad Prism V4.03 software (GraphPad Software, San Diego, Calif., USA).
To analyze binding of anti-CD32b HuMabs to CD32b1 and CD32b2, IIA1.6 cells transfected with full length CD32b1 or CD32b2 (van den Herik-Oudijk et al., 1994) were prepared as described supra. The assay was performed as described supra. Flow cytometry was performed on a FACS Canto II (BD Biosciences).

[2] = molecular target: T2, full length CD32a on stably transfected IIA1.6 cells (human, UniProt P12318 34-317); experiment: flow cytometry on IIA1.6-CD32a cells
T2 construct: whole, on cells; also called IIA1.6-CD32a; CD32a-expressing IIA1.6 cells
T2 sequence (looked up): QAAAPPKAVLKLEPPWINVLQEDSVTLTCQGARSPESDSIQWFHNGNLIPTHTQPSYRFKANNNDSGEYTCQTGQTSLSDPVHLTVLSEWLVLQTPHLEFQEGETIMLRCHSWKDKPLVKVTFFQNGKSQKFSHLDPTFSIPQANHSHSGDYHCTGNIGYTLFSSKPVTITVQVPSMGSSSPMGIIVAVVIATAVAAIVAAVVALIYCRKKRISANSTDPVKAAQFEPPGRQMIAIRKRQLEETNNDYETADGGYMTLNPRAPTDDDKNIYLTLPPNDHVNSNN
Method: as §1

CD32bECDHis [3] = molecular target: T3, CD32bECDHis (human, UniProt P31994 43-223, limits assumed); experiment: SPR BIAcore 3000, antibody immobilized, CD32bECDHis analyte
T3 construct: Produced in HEK-293F cells; also called extracellular domain of CD32b with C-terminal His tag; soluble CD32b
T3 sequence (looked up): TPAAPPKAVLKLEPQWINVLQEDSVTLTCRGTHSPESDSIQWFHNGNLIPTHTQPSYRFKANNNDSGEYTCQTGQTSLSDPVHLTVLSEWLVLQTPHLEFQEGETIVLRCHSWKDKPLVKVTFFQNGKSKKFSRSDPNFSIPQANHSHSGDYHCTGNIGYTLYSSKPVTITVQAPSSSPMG
Method: Antibody binding to CD32a and CD32b was analyzed by surface plasmon resonance in a BIAcore 3000 (GE Healthcare). CD32aECDHis and CD32bECDHis derived from HEK293 cells were used for the analysis. HuMab antibodies were immobilized on the CM-5 sensor chip according to the procedure recommended by the manufacturer. Briefly, after surface activation by EDC and NHS HuMab antibody was injected over the activated CM-5 surface in 10 mM sodium-acetate, pH ranging from 4.0 to 5.5 at 5 μl/min. followed by 1 M Ethanolamine for deactivation. Concentration series of CD32bECDHis in HBS-EP buffer were injected over the immobilized antibodies at a flow rate of 30 μl/min for 180 sec. Regeneration of the HuMab surface was performed by injection of 10 mM Glycine-HCl pH 2.0 or 10 mM sodium acetate pH 3.0. […] Kinetic analysis is performed using double reference subtraction and model 1:1 (langmuir) binding analysis. Specificity was studied by injecting CD32aECDHis at a concentration of […] over immobilized HuMab and isotype control antibodies under the same conditions as for the CD32b measurements.

CD32bECDHis [4] = molecular target: T3, CD32bECDHis; experiment: ELISA on coated CD32bECDHis
Method: The specificity of the obtained anti-CD32b HuMabs was evaluated by ELISA. ELISA plates (Microlon; Greiner Bio-One) were coated overnight at 4° C. with 2 μg/ml of CD32aECDHis and CD32bECDHis in PBS, pH 7.4. Coated ELISA plates were washed with PBS, blocked for one hour at room temperature with 2% (v/v) chicken serum (Gibco, Paisley, Scotland) in PBS and washed again with PBS. Subsequently, HuMabs, serially diluted in PBSTC (PBS supplemented with 2% (v/v) chicken serum and 0.05% (v/v) Tween-20), were incubated for 1 hr at RT under shaking conditions (300 rpm). Bound HuMabs were detected using HRP-conjugated goat-anti-human IgG antibodies (Jackson ImmunoResearch Europe) diluted 1:10,000 in PBSTC, which were incubated for 1 hr at RT under shaking conditions (300 rpm). […] Binding curves were analyzed using non-linear regression (sigmoidal dose-response with variable slope) using GraphPad Prism V4.03 software.

CD32bECDHis [5] = molecular target: T3, CD32bECDHis; experiment: TR-FRET competition against HuMab-KLH-AlexaFluor 647
Excerpt: To study the interaction of anti-CD32b HuMabs with CD32b and CD32a in more detail TR-FRET technology was applied. To this end, CD32bECDHis and CD32aECDHis were labeled with a fluorescent donor molecule directed against the histidine tag (Anti-6×His Europium3+, PerkinElmer, Boston Mass.).
Briefly, all dilutions were made in 0.5× Lance detection buffer (PerkinElmer, Boston Mass.) supplemented with 0.2% BSA (obtained via dilution of 7.5% BSA Stabilizer solution, cat: CR84-100, PerkinElmer) and 0.03% (v/v) Tween-20 (Riedel de Haen, Seelze, Germany). CD32bECDHis and CD32aECDHis were diluted to 0.5 μg/ml. […] Anti-6×His Europium3+ (PerkinElmer, Boston Mass.) was diluted to 0.15 μg/ml. A 4-fold serial dilution of the tested HuMab antibody was made in a 96 wells non-binding plate (cat. 650261, Greiner Bio-one, Frickenhausen, Germany), ranging from 10 μg/ml-0.04 ng/ml. […] After overnight incubation at 4° C. in the dark, fluorescence was measured using an EnVision 2101 Multilabel reader (PerkinElmer, Boston, Mass.) applying the following settings; Lance/Delfia dual mirror, emission filter 615-665 nm, excitation filter 320 nm, delay time 60 μs, window 100 μs, 100 flashes, 2000 μs per cycle and bidirectional row-by-row reading. Binding curves were analyzed using non-linear regression (sigmoidal dose-response with variable slope) using GraphPad Prism V4.03 software (GraphPad Software, San Diego, Calif., USA).

biotinylated CD32bECDHis [6] = molecular target: T4, biotinylated CD32bECDHis (human, UniProt P31994 43-223, limits assumed, biotinylated (sites not given)); experiment: competition ELISA, competitor 053
T4 sequence (looked up): T3 sequence (looked up)
Method: (§2) ELISA wells were coated overnight at 4° C. with anti-CD32b HuMabs serially diluted in PBS. The ELISA wells were washed with PBS, blocked for one hour at room temperature with 2% (v/v) chicken serum (Gibco, Paisley, Scotland) in PBS and washed again with PBS. Subsequently, the immobilized antibodies were incubated with biotinylated CD32bECDHis serially diluted in PBSTC. After washing with PBS/Tween, bound biotinylated CD32bECDHis was incubated with Streptavidin-poly-HRP (Sanquin, Amsterdam, The Netherlands) for 1 hr at RT an the reaction was developed as described supra.
(§3) To this end, ELISA wells coated with anti-CD32b HuMabs were incubated in the presence of an excess of CD32b-specific antibody and the predetermined concentration of biotinylated CD32bECDHis in fluid phase. The reaction was developed as described.

biotinylated CD32bECDHis [7] = molecular target: T4, biotinylated CD32bECDHis; experiment: competition ELISA, competitor 020
Method: as §2, §3

biotinylated CD32bECDHis [8] = molecular target: T4, biotinylated CD32bECDHis; experiment: competition ELISA, competitor 026
Method: as §2, §3

biotinylated CD32bECDHis [9] = molecular target: T4, biotinylated CD32bECDHis; experiment: competition ELISA, competitor 034
Method: as §2, §3

biotinylated CD32bECDHis [10] = molecular target: T4, biotinylated CD32bECDHis; experiment: competition ELISA, competitor 2B6
Method: as §2, §3

biotinylated CD32bECDHis [11] = molecular target: T4, biotinylated CD32bECDHis; experiment: competition ELISA, competitor 024
Method: as §2, §3

biotinylated CD32bECDHis [12] = molecular target: T4, biotinylated CD32bECDHis; experiment: competition ELISA, competitor 016
Method: as §2, §3

biotinylated CD32bECDHis [13] = molecular target: T4, biotinylated CD32bECDHis; experiment: competition ELISA, competitor 063
Method: as §2, §3

biotinylated CD32bECDHis [14] = molecular target: T4, biotinylated CD32bECDHis; experiment: competition ELISA, competitor 038
Method: as §2, §3

biotinylated CD32bECDHis [15] = molecular target: T4, biotinylated CD32bECDHis; experiment: competition ELISA, competitor 022
Method: as §2, §3

biotinylated CD32bECDHis [16] = molecular target: T4, biotinylated CD32bECDHis; experiment: competition ELISA, competitor 028
Method: as §2, §3

B1: Antibody 016 (antibody, human IgG1, V domains shown)
VH: QVQLVESGGGVVQPGRSLRLSCAASGFTFSSYGIHWVRQAPGKGLEWVAVIGYDGSDKNYADSVKGRFTIFRDNSKNTLYLQMNSLRAEDTAVYYCARDQLGDAFDIWGQGTMVTVSS
VL: EIVLTQSPATLSLSPGERATLSCKASQSVSSSLAWYQQKPGQAPRLLIYDASNRATGIPARFSGSGSGTDFTLTISSLEPEDFAVYYCQQRSNWPPYTFGQGTKLEIKR
notes: Human antibody; also called HuMab 016
With B1 the EC50 [1] was 0.11 nM, the EC50 [2] was 0.25 nM and the Kd (CD32bECDHis [3]) was 1.1 nM. The koff (CD32bECDHis [3]) was 0.0028 s⁻¹, the kon (CD32bECDHis [3]) was 2.66e+06 M⁻¹ s⁻¹ and the EC50 (CD32bECDHis [4]) was 0.28 nM. For the same binder, the IC50 (CD32bECDHis [5]) was 0.24 nM.

B2: Antibody 063 (antibody, human IgG1, V domains shown)
VH: EVQLLESGGGLVQPGGSLRLSCAASGFTFSSYAMSWVRQAPGKGLEWVSAISDSGGSTYYADSVKGRFTISRDNSKNTLYLQMNSLRAEDTAAYYCAKEIAVALFDYWGQGTLVTVSS
VL: B1 VL with K24R, S32Y, N93S
notes: Human antibody; also called HuMab 063
B2 was tested, and the “% residual binding” value (biotinylated CD32bECDHis [6]) was 79%, the “% residual binding” value (biotinylated CD32bECDHis [7]) was 59% and the “% residual binding” value (biotinylated CD32bECDHis [8]) was 70%. For the same binder, the “% residual binding” value (biotinylated CD32bECDHis [9]) was 8%, the “% residual binding” value (biotinylated CD32bECDHis [10]) was 98% and the “% residual binding” value (biotinylated CD32bECDHis [11]) was 23%. For the same binder, the “% residual binding” value (biotinylated CD32bECDHis [12]) was 103%, the “% residual binding” value (biotinylated CD32bECDHis [13]) was 0% and the “% residual binding” value (biotinylated CD32bECDHis [14]) was 102%. The “% residual binding” value (biotinylated CD32bECDHis [15]) was 29%, the “% of maximal Fab-mediated inhibition” value (CD32bECDHis [5]) was about 70% and the “% residual binding” value (biotinylated CD32bECDHis [16]) was 49%.

B3: Antibody 053 (antibody, human IgG1, V domains shown)
VH: QVQLVESGGGVVQPGRSLRLSCAVSGFTFRSYGMHWVRQAPGKGLEWVAVIWYDGSIKYYADSVKGRFTISRDNSKNTLYLQMNSLRAEDTAVYFCAREGGRDAFDIWGQGTMVTVSS
VL: AVQLTQSPSSLSASVGDRVTITCRASQGISSALAWYQQKPGKAPKLLIYDASSLESGVPSRFSGSGSGTDFTLTISSLQPEDFATYCCQQFNSYPHTFGGGTKVEIKR
notes: Human antibody; also called HuMab 053
For B3, the EC50 [1] was 1.06 nM, the “% residual binding” value (biotinylated CD32bECDHis [6]) was 40% and the “% residual binding” value (biotinylated CD32bECDHis [7]) was 19%. The “% residual binding” value (biotinylated CD32bECDHis [8]) was 26%, the “% residual binding” value (biotinylated CD32bECDHis [9]) was 4% and the “% residual binding” value (biotinylated CD32bECDHis [10]) was 195%. For the same binder, the “% residual binding” value (biotinylated CD32bECDHis [11]) was 6%, the “% residual binding” value (biotinylated CD32bECDHis [12]) was 98% and the “% residual binding” value (biotinylated CD32bECDHis [13]) was 43%. The “% residual binding” value (biotinylated CD32bECDHis [14]) was 168%, the “% residual binding” value (biotinylated CD32bECDHis [15]) was 8% and the “% residual binding” value (biotinylated CD32bECDHis [16]) was 13%.
